Measurements from the supplement of paper PMC10567573.

B1: ACSBG2 (parent)
chain: TPMTIPEFFRESVNRFGTYPALAS

Variants of: B1
Experiment: protein stability index of a GFP-peptide fusion (GPS, HEK-293T) (PSI 1-6); higher = more stable
Details: c terminus: a fixed tail appended
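Also: lentivirally expressed fusions sorted by FACS into six bins by GFP to DsRed ratio, PSI derived from sequencing read proportions per bin multiplied by bin number.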

Variant	protein stability index
TKMTIPEFFRESVNRFGTYPALAS	2.01
TQMTIPEFFRESVNRFGTYPALAS	2.4
TPTTIPEFFRESVNRFGTYPALAS	2.55
TPNTIPEFFRESVNRFGTYPALAS	2.62
TPLTIPEFFRESVNRFGTYPALAS	2.09
TPCTIPEFFRESVNRFGTYPALAS	2.34
TPDTIPEFFRESVNRFGTYPALAS	2.52
TPFTIPEFFRESVNRFGTYPALAS	2.14
TPITIPEFFRESVNRFGTYPALAS	2.5
TPYTIPEFFRESVNRFGTYPALAS	2.49
TPKTIPEFFRESVNRFGTYPALAS	2.46
TPVTIPEFFRESVNRFGTYPALAS	2.11
TPWTIPEFFRESVNRFGTYPALAS	1.69
TPSTIPEFFRESVNRFGTYPALAS	2.8
TPRTIPEFFRESVNRFGTYPALAS	2.61
TPATIPEFFRESVNRFGTYPALAS	2.34
TPHTIPEFFRESVNRFGTYPALAS	2.37
TPQTIPEFFRESVNRFGTYPALAS	3.21
TPPTIPEFFRESVNRFGTYPALAS	2.02
TPETIPEFFRESVNRFGTYPALAS	2.44
TPGTIPEFFRESVNRFGTYPALAS	2.54
TPMTIKEFFRESVNRFGTYPALAS	2.15
TPMTITEFFRESVNRFGTYPALAS	1.88
TPMTIYEFFRESVNRFGTYPALAS	1.99

Variant	protein stability index
TPMTILEFFRESVNRFGTYPALAS	3.27
TPMTIAEFFRESVNRFGTYPALAS	1.8
TPMTIIEFFRESVNRFGTYPALAS	3
TPMTIDEFFRESVNRFGTYPALAS	1.76
TPMTIVEFFRESVNRFGTYPALAS	1.41
TPMTICEFFRESVNRFGTYPALAS	1.89
TPMTIREFFRESVNRFGTYPALAS	2.08
TPMTIHEFFRESVNRFGTYPALAS	2.38
TPMTIQEFFRESVNRFGTYPALAS	1.93
TPMTINEFFRESVNRFGTYPALAS	2.05
TPMTIMEFFRESVNRFGTYPALAS	3.03
TPMTIEEFFRESVNRFGTYPALAS	2.15
TPMTIGEFFRESVNRFGTYPALAS	2.08
TPMTIWEFFRESVNRFGTYPALAS	2.67
TPMTIFEFFRESVNRFGTYPALAS	4.36
TPMTISEFFRESVNRFGTYPALAS	1.94
TPMIIPEFFRESVNRFGTYPALAS	1.88
TPMNIPEFFRESVNRFGTYPALAS	2.4
TPMWIPEFFRESVNRFGTYPALAS	2.19
TPMSIPEFFRESVNRFGTYPALAS	1.99
TPMVIPEFFRESVNRFGTYPALAS	3.26
TPMCIPEFFRESVNRFGTYPALAS	2.36
TPMYIPEFFRESVNRFGTYPALAS	2.62
TPMHIPEFFRESVNRFGTYPALAS	2.38

Variant	protein stability index
TPMGIPEFFRESVNRFGTYPALAS	2.34
TPMKIPEFFRESVNRFGTYPALAS	2.31
TPMLIPEFFRESVNRFGTYPALAS	1.86
TPMQIPEFFRESVNRFGTYPALAS	2.13
TPMDIPEFFRESVNRFGTYPALAS	2.23
TPMAIPEFFRESVNRFGTYPALAS	2.62
TPMPIPEFFRESVNRFGTYPALAS	2.73
TPMFIPEFFRESVNRFGTYPALAS	1.65
TPMEIPEFFRESVNRFGTYPALAS	2.52
TPMRIPEFFRESVNRFGTYPALAS	2.32
TPMMIPEFFRESVNRFGTYPALAS	2.17
TPMTIPEDFRESVNRFGTYPALAS	3.19
TPMTIPEPFRESVNRFGTYPALAS	2.72
TPMTIPEIFRESVNRFGTYPALAS	2.42
TPMTIPEEFRESVNRFGTYPALAS	2.35
TPMTIPEGFRESVNRFGTYPALAS	3.02
TPMTIPESFRESVNRFGTYPALAS	2.9
TPMTIPEAFRESVNRFGTYPALAS	2.99
TPMTIPENFRESVNRFGTYPALAS	3.19
TPMTIPEMFRESVNRFGTYPALAS	2.35
TPMTIPEKFRESVNRFGTYPALAS	3.02
TPMTIPETFRESVNRFGTYPALAS	2.8
TPMTIPERFRESVNRFGTYPALAS	2.39
TPMTIPECFRESVNRFGTYPALAS	2.7

Variant	protein stability index
TPMTIPELFRESVNRFGTYPALAS	2.66
TPMTIPEQFRESVNRFGTYPALAS	2.65
TPMTIPEHFRESVNRFGTYPALAS	2.45
TPMTVPEFFRESVNRFGTYPALAS	2.03
TPMTNPEFFRESVNRFGTYPALAS	2.39
TPMTFPEFFRESVNRFGTYPALAS	2.23
TPMTHPEFFRESVNRFGTYPALAS	2.39
TPMTAPEFFRESVNRFGTYPALAS	2.44
TPMTMPEFFRESVNRFGTYPALAS	2.37
TPMTRPEFFRESVNRFGTYPALAS	2.97
TPMTWPEFFRESVNRFGTYPALAS	2.18
TPMTPPEFFRESVNRFGTYPALAS	2.5
TPMTGPEFFRESVNRFGTYPALAS	2.84
TPMTQPEFFRESVNRFGTYPALAS	3.5
TPMTKPEFFRESVNRFGTYPALAS	2.19
TPMTCPEFFRESVNRFGTYPALAS	2.58
TPMTLPEFFRESVNRFGTYPALAS	1.97
TPMTSPEFFRESVNRFGTYPALAS	2.51
TPMTTPEFFRESVNRFGTYPALAS	2.67
TPMTDPEFFRESVNRFGTYPALAS	2.7
TPMTEPEFFRESVNRFGTYPALAS	2.84
TPMTYPEFFRESVNRFGTYPALAS	2.05
